According to US20220119490A1 (Genentech, published 2022):

Tests used:
Assay in all cases: cell surface interaction assay: query ECD tetramerised with fluorescent streptavidin on transfected cells, immunofluorescence
PTPRM expressed on cells = target: T1, PTPRM expressed on cells (human, UniProt P28827 21-1452)
T1 construct: whole, on cells

PTPRO expressed on cells = target: T2, PTPRO expressed on cells (human, UniProt Q16827 30-1216)
T2 construct: whole, on cells
T2 sequence (looked up): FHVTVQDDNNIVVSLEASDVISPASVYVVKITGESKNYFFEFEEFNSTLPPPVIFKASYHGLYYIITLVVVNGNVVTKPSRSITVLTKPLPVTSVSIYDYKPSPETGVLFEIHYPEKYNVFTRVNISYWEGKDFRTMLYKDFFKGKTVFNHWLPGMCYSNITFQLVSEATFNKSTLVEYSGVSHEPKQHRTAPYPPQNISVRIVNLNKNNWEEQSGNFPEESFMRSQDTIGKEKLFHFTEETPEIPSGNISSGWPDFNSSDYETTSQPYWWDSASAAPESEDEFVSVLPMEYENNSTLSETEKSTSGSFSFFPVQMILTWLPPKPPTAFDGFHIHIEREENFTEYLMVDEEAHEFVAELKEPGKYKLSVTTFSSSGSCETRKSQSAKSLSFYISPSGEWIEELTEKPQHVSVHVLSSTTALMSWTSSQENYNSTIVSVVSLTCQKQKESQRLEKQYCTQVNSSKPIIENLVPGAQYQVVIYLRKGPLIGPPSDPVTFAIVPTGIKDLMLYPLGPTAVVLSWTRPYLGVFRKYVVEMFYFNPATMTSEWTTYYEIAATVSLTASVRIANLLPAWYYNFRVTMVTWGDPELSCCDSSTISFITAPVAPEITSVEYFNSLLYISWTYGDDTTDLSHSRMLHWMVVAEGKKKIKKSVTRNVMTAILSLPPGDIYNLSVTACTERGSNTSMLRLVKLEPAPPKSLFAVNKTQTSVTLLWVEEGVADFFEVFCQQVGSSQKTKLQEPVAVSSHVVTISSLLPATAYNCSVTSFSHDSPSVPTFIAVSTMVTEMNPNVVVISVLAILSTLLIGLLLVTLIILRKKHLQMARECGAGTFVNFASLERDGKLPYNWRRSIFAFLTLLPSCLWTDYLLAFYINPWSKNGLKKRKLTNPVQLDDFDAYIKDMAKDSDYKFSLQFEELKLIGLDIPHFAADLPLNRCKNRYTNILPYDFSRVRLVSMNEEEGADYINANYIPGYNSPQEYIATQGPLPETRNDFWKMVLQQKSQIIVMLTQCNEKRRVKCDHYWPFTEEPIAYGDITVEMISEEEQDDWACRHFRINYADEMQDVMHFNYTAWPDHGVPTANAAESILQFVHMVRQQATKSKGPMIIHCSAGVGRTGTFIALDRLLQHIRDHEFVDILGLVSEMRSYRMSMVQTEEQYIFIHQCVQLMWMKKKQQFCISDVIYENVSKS

PTPRF expressed on cells = target: T3, PTPRF expressed on cells (human, UniProt P10586 30-1907)
T3 construct: whole, on cells; also called receptor-type tyrosine-protein phosphatase F
T3 sequence (P10586 30-1907): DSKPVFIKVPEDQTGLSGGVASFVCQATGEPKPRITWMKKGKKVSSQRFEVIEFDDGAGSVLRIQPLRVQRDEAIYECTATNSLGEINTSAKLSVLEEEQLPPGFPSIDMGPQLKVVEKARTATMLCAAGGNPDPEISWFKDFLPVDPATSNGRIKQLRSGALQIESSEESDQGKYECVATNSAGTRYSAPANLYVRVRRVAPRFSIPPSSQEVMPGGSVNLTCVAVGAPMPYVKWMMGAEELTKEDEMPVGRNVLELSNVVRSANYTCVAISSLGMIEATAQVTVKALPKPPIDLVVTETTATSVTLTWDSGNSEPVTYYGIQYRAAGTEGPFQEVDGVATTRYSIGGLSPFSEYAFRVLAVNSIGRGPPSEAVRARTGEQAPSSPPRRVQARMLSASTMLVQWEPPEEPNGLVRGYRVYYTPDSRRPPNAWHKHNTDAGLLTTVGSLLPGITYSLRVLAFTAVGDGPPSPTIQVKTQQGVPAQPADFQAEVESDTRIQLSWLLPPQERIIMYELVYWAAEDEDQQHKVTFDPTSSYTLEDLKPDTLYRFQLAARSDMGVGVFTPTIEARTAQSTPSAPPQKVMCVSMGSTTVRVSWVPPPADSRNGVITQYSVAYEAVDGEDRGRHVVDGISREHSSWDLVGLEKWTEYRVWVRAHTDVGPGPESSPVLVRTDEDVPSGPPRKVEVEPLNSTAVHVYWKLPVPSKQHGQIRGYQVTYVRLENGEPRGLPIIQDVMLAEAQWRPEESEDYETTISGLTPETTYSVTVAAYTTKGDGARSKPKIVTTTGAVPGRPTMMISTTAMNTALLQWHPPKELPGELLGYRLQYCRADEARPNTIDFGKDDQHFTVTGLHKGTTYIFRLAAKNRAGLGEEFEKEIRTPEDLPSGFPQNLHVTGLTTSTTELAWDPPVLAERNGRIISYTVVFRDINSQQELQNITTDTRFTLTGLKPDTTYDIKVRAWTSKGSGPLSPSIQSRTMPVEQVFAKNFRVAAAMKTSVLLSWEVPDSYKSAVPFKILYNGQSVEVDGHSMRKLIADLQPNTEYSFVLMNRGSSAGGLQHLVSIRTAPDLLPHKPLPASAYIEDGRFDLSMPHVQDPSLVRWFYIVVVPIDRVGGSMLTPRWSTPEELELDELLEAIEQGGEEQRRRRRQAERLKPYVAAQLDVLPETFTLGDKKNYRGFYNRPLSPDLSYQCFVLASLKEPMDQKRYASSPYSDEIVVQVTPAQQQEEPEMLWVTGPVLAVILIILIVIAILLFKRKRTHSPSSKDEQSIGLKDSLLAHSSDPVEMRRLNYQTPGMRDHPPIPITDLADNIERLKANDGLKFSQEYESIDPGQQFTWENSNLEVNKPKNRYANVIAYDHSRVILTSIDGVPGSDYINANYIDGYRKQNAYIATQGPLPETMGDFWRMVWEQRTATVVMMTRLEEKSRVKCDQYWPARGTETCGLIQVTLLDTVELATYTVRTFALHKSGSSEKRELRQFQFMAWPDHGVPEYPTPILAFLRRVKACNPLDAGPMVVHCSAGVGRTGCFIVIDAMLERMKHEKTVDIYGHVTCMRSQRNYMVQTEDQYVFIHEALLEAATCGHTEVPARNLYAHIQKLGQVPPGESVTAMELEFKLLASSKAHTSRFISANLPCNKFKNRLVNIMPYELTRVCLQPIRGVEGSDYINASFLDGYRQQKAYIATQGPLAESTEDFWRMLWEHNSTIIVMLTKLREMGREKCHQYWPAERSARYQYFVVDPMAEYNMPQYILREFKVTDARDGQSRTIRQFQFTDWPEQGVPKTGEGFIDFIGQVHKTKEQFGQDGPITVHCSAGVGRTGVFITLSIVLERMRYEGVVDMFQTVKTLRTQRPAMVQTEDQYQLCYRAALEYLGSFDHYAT

PTPRT expressed on cells = target: T4, PTPRT expressed on cells (human, UniProt O14522 26-1441)
T4 construct: whole, on cells
T4 sequence (looked up): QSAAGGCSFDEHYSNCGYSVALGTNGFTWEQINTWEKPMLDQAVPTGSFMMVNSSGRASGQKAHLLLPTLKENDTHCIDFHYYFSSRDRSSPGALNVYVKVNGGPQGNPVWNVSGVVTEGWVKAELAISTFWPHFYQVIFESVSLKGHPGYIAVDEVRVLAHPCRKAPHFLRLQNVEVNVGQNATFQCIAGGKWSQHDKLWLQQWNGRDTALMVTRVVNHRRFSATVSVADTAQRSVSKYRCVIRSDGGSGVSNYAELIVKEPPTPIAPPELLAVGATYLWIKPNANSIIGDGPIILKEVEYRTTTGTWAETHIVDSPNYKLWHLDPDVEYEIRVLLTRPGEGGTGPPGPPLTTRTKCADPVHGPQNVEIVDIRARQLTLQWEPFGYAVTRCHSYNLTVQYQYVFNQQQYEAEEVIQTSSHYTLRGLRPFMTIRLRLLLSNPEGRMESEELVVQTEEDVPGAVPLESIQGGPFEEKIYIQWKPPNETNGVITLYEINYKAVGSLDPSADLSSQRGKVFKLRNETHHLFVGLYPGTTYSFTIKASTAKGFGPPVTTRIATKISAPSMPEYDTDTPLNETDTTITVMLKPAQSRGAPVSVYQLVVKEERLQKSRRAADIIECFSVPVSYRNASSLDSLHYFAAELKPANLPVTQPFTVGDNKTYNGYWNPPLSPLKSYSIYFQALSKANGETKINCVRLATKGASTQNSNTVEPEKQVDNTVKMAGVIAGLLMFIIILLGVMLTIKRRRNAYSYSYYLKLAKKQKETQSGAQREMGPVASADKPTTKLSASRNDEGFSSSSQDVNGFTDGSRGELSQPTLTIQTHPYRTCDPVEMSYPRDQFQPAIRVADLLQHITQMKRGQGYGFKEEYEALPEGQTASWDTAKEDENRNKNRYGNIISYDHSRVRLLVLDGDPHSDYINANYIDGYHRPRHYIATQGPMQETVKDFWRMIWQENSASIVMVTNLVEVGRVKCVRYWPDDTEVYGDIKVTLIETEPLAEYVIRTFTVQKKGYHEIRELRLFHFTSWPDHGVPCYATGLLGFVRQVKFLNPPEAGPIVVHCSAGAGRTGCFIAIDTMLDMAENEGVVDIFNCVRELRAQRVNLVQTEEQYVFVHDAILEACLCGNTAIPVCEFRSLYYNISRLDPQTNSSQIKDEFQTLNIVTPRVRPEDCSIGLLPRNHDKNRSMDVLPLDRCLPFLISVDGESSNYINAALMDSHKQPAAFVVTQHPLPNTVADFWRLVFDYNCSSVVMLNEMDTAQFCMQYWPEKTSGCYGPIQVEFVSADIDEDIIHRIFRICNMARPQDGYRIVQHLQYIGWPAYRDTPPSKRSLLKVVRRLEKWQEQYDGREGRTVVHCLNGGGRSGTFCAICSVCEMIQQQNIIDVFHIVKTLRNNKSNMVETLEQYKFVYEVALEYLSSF

PTPRG expressed on cells = target: T5, PTPRG expressed on cells (human, UniProt P23470 20-1445)
T5 construct: whole, on cells
T5 sequence (P23470 20-1445): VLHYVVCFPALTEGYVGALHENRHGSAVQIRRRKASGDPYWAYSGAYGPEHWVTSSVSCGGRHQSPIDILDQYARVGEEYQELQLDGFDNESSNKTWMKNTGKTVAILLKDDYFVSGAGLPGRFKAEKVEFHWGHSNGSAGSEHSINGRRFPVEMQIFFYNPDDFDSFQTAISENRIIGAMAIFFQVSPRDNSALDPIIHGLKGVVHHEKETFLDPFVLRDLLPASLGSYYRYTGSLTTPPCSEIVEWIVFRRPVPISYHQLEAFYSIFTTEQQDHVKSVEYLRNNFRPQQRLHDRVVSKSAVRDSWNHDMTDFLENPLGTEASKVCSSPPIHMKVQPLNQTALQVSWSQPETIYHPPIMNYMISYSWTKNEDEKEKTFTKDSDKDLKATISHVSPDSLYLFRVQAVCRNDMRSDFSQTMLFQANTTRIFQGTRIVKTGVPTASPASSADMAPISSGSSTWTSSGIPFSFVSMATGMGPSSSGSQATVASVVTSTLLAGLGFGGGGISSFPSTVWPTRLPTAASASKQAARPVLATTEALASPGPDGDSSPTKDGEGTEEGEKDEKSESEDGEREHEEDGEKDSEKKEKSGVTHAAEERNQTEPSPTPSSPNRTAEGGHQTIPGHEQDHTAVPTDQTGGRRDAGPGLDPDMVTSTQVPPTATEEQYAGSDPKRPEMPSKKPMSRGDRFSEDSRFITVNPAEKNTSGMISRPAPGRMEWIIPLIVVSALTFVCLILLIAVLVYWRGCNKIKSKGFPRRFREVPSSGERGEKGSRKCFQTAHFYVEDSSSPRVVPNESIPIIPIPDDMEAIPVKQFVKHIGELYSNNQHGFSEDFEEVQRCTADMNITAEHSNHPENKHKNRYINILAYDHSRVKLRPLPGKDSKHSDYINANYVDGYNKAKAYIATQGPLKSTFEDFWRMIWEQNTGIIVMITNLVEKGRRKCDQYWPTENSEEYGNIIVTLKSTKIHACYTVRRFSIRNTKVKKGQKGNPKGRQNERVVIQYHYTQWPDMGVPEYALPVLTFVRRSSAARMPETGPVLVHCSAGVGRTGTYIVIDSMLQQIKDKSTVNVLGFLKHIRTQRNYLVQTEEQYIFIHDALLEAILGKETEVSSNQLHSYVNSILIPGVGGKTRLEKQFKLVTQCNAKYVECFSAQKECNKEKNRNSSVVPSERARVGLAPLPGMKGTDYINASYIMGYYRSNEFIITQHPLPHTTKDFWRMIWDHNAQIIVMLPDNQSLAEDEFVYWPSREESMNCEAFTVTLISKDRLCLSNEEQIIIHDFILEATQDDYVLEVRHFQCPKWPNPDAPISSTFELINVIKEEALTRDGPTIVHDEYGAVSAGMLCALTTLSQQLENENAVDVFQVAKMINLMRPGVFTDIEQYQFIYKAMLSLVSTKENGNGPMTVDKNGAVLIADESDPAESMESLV

T1 sequence (P28827 21-1452): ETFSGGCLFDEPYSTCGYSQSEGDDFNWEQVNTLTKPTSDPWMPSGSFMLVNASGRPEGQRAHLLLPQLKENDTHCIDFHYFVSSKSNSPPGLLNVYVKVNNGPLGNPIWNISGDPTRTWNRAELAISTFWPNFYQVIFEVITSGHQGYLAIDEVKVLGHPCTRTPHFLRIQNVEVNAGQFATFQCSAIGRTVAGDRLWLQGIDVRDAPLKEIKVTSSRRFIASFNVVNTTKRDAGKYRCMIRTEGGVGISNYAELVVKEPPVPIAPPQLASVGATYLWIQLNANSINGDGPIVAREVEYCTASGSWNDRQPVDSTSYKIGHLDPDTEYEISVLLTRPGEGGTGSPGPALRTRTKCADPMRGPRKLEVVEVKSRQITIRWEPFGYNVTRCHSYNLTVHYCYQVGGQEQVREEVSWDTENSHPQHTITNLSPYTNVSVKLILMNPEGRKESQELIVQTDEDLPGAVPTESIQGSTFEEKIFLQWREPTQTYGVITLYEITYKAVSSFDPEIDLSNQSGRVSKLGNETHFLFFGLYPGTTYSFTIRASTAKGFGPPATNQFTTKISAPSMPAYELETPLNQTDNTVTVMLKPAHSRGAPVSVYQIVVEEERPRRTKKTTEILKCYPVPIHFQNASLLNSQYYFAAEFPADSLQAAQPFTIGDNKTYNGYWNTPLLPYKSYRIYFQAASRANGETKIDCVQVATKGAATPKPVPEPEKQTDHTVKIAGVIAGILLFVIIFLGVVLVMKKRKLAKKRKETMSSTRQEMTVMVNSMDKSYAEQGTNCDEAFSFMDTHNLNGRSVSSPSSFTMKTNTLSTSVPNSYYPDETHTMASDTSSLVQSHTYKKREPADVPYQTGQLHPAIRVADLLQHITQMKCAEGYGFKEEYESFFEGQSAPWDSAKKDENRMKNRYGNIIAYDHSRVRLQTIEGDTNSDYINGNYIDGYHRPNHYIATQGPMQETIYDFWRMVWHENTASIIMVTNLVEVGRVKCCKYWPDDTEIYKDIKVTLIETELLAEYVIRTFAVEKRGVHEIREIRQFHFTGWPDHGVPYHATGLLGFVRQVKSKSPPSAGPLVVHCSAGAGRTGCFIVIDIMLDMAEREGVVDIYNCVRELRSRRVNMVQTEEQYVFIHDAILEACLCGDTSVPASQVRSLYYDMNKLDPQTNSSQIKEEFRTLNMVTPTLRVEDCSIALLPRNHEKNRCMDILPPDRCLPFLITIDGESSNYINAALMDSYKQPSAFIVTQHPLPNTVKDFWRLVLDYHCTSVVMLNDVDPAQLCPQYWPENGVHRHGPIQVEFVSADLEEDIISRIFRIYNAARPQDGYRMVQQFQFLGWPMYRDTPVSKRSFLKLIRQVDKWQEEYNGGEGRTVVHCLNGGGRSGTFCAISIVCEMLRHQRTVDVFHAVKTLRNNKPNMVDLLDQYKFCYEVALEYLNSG

binding result (PTPRM expressed on cells): no binding | binding result (PTPRO expressed on cells): no binding | binding result (PTPRF expressed on cells): no binding | binding result (PTPRT expressed on cells): no binding | binding result (PTPRG expressed on cells): no binding
B1: CNTN1 extracellular domain (receptor, human, UniProt Q12860 21-993, looked up)
chain: EFTWYRRYGHGVSEEDKGFGPIFEEQPINTIYPEESLEGKVSLNCRARASPFPVYKWRMNNGDVDLTSDRYSMVGGNLVINNPDKQKDAGIYYCLASNNYGMVRSTEATLSFGYLDPFPPEERPEVRVKEGKGMVLLCDPPYHFPDDLSYRWLLNEFPVFITMDKRRFVSQTNGNLYIANVEASDKGNYSCFVSSPSITKSVFSKFIPLIPIPERTTKPYPADIVVQFKDVYALMGQNVTLECFALGNPVPDIRWRKVLEPMPSTAEISTSGAVLKIFNIQLEDEGIYECEAENIRGKDKHQARIYVQAFPEWVEHINDTEVDIGSDLYWPCVATGKPIPTIRWLKNGYAYHKGELRLYDVTFENAGMYQCIAENTYGAIYANAELKILALAPTFEMNPMKKKILAAKGGRVIIECKPKAAPKPKFSWSKGTEWLVNSSRILIWEDGSLEINNITRNDGGIYTCFAENNRGKANSTGTLVITDPTRIILAPINADITVGENATMQCAASFDPALDLTFVWSFNGYVIDFNKENIHYQRNFMLDSNGELLIRNAQLKHAGRYTCTAQTIVDNSSASADLVVRGPPGPPGGLRIEDIRATSVALTWSRGSDNHSPISKYTIQTKTILSDDWKDAKTDPPIIEGNMEAARAVDLIPWMEYEFRVVATNTLGRGEPSIPSNRIKTDGAAPNVAPSDVGGGGGRNRELTITWAPLSREYHYGNNFGYIVAFKPFDGEEWKKVTVTNPDTGRYVHKDETMSPSTAFQVKVKAFNNKGDGPYSLVAVINSAQDAPSEAPTEVGVKVLSSSEISVHWEHVLEKIVESYQIRYWAAHDKEEAANRVQVTSQEYSARLENLLPDTQYFIEVGACNSAGCGPPSDMIEAFTKKAPPSQPPRIISSVRSGSRYIITWDHVVALSNESTVTGYKVLYRPDGQHDGKLYSTHKHSIEVPIPRDGEYVVEVRAHSDGGDGVVSQVKIS
notes: extracellular domain; Streptavidin tetramer in cell assays; ECD-Fc in SPR; also called contactin 1
